Each block holds one binder with its values, some of them ahead of it.
How the values were obtained:
[1] = target: T1, human CD39 (ectonucleoside triphosphate diphosphohydrolase 1) (human, UniProt P49961 1-510); assay: flow cytometry (MFI), AF488-labelled antibody on SK-MEL-28 cells, FIG. 4A
T1 construct: Endogenous CD39 on MOLP-8 and SK-MEL-28 cells, primary human B cells and primary human monocytes; also called ENTPD1; ATPDase
T1 sequence: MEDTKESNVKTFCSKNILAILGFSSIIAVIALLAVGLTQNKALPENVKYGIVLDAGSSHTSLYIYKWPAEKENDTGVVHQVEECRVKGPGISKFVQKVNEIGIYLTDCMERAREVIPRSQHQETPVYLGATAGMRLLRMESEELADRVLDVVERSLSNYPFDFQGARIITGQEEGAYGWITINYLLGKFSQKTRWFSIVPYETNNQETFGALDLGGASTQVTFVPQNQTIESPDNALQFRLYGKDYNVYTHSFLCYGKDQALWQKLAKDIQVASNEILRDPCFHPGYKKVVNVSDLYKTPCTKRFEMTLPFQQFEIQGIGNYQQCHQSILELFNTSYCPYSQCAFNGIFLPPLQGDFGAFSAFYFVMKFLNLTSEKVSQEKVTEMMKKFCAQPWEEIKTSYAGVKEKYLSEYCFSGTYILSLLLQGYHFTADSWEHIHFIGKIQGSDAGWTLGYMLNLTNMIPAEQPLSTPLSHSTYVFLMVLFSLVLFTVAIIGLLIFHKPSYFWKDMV
Experimental: (§1) The extent of binding to cells was determined and expressed as mean fluorescent intensity (MFI). Cells were washed with FACS Buffer (2 mM EDTA, 2% FBS) and pelleted by centrifugation. The cells were resuspended in FACS buffer containing a dose range of anti-CD39 or isotype control antibodies directly labelled with fluorophore Alexa Fluor 488 (AF488) and incubated for 30 minutes at room temperature. Cells were then washed twice with FACS buffer followed by fixation in 4% paraformaldehyde (PFA) and resuspended in FACS buffer and analyzed on a FACS Canto II analyzer (BD Biosciences).

[2] = target: T1, human CD39 (ectonucleoside triphosphate …); assay: flow cytometry (MFI), AF488-labelled antibody, told under FIG. 4B (MOLP-8 cells; the sentence prints SK-MEL-28)
Experimental: as §1

binding result [1]: binds
B1: SRF365-A (antibody, human IgG4 S228P, kappa, V domains shown)
VH: QVQLVQSGAEVKKPGSSVKVSCKASGGTFSDKAISWVRQAPGQGLEWMGSILPIFGTANYAQKFQGRVTITADESTSTAYMELSSLRSEDTAVYYCAREAGYYRYRYFDLWGRGTLVTVSS
VL: EIVMTQSPATLSVSPGERATLSCRASQSVSSNLAWYQQKPGQAPRLLIYGASTRATGIPARFSGSGSGTEFTLTISSLQSEDFAVYYCQQHALWPLTFGGGTKVEIKR

binding result [2]: binds
B2: SRF370-A (antibody, human IgG4 S228P, kappa, V domains shown)
VH: QVQLVQSGAEVKKPGSSVKVSCKASGGTFSTYAIGWVRQAPGQGLEWMGGIIPAFGTANYAQKFQGRVTITADESTSTAYMELSSLRSEDTAVYYCARDPVRRSPFDIWGQGTMVTVSS
VL: EIVLTQSPATLSLSPGERATLSCRASQSVSSYLAWYQQKPGQAPRLLIYDSSNRATGIPARFSGSGSGTDFTLTISSLEPEDFAVYYCQQSFLWPRTFGGGTKVEIKR

From patent publication US20200399394A1 (SURFACE ONCOLOGY, published 2020)
